From the supplement of paper PMC10724198
± gives the standard deviation of the averaged measurements.

What was measured:
Saccharomyces cerevisiae [1] = experiment: protein stability index of tFT-peptide fusion (C-terminal peptide) (PSI (0-1 scale)); higher = more stable (slower turnover)
Procedure: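 MPS profiling in S. cerevisiae of the tFT-X12 degron library: putative degron peptides plus stable controls, 12 aa, fused to the C-terminus of a sfGFP-mCherry timer. Cells are FACS-sorted into 8 mCherry/sfGFP bins and deep-sequenced. PSI runs from 0 (unstable) to 1 (stable). Backgrounds are wild type, das1Δ and doa10Δ at 30 °C, and wild type, das1Δ, cdc34-1 and cdc53-1 at 37 °C; 2-3 technical replicates each.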

Saccharomyces cerevisiae [2] = experiment: as above; details: genetic background: wild type; temperature: 30 C
[3] = genetic background: cdc34-1, temperature: 37 C
[4] = genetic background: cdc53-1, temperature: 37 C
[5] = genetic background: das1 deletion, temperature: 30 C
[6] = genetic background: das1 deletion, temperature: 37 C
[7] = genetic background: doa10 deletion, temperature: 30 C
[8] = genetic background: wild type, temperature: 30 C
[9] = genetic background: wild type, temperature: 37 C
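Also: PSI is a weighted mean of sequencing reads over stability bins, variants kept only with over 10 reads, mCherry proximal and sfGFP distal, peptide attached via GGGS linker.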

Sequence | protein stability index (Saccharomyces cerevisiae [1]; [3]) | protein stability index (Saccharomyces cerevisiae [1]; [4]) | protein stability index (Saccharomyces cerevisiae [1]; [5]) | protein stability index (Saccharomyces cerevisiae [1]; [6]) | protein stability index (Saccharomyces cerevisiae [1]; [7]) | protein stability index (Saccharomyces cerevisiae [1]; [8]) | protein stability index (Saccharomyces cerevisiae [1]; [9]) | protein stability index (Saccharomyces cerevisiae [2])
RIFWMFFSQHIG | 0.569 ± 0.011 | 0.761 ± 0.054 | 0.652 ± 0.019 | 0.7247 ± 0.00085 | 0.106 ± 0.0093 | 0.139 ± 0.024 | 0.288 ± 0.017 | 0.197 ± 0.068
RLCLLLCCRLWL | 0.53 ± 0.023 | 0.58 ± 0.013 | 0.442 ± 0.022 | 0.565 ± 0.012 | 0.461 ± 0.022 | 0.428 ± 0.011 | 0.55 ± 0.01 | 0.4961 ± 0.0041
RLFVRIQLSLLF | 0.313 ± 0.036 | 0.351 ± 0.012 | 0.31 ± 0.025 | 0.398 ± 0.0092 | 0.33 ± 0.0035 | 0.265 ± 0.033 | 0.3506 ± 0.00077 | 0.351 ± 0.0049
RLICFFSMYLRF | 0.239 ± 0.024 | 0.17 ± 0.064 | 0.367 ± 0.058 | 0.395 ± 0.006 | 0.614 ± 0.029 | 0.355 ± 0.026 | 0.369 ± 0.022 | 0.334 ± 0.14
RLLFFVFLSSRF | 0.287 ± 0.019 | 0.268 ± 0.014 | 0.33 ± 0.025 | 0.472 ± 0.0093 | 0.489 ± 0.04 | 0.329 ± 0.035 | 0.4212 ± 0.0027 | 0.407 ± 0.0066
RLRCRVLQWVWG | 0.617 ± 0.0085 | 0.693 ± 0.0084 | 0.557 ± 0.038 | 0.6562 ± 0.0012 | 0.352 ± 0.0078 | 0.385 ± 0.027 | 0.571 ± 0.0062 | 0.471 ± 0.035
RLSTTTTKQFIH | 0.668 ± 0.016 | 0.74 ± 0.013 | 0.661 ± 0.045 | 0.753 ± 0.021 | 0.302 ± 0.0053 | 0.348 ± 0.022 | 0.58 ± 0.011 | 0.4902 ± 0.0011
RMTFFGFTVKML | 0.641 ± 0.025 | 0.7448 ± 0.0058 | 0.619 ± 0.0095 | 0.75 ± 0.011 | 0.196 ± 0.036 | 0.264 ± 0.03 | 0.537 ± 0.01 | 0.407 ± 0.031
RNFSFTVICLAM | 0.48 ± 0.037 | 0.62 ± 0.05 | 0.485 ± 0.057 | 0.549 ± 0.0093 | 0.472 ± 0.026 | 0.474 ± 0.023 | 0.514 ± 0.019 | 0.511 ± 0.11
RPCRPLIAAFVF | 0.531 ± 0.0097 | 0.537 ± 0.022 | 0.415 ± 0.045 | 0.5628 ± 0.0049 | 0.374 ± 0.012 | 0.421 ± 0.031 | 0.529 ± 0.0077 | 0.502 ± 0.011
RQILYYRERFIP | 0.577 ± 0.043 | 0.715 ± 0.014 | 0.634 ± 0.011 | 0.694 ± 0.027 | 0.169 ± 0.012 | 0.196 ± 0.022 | 0.355 ± 0.017 | 0.313 ± 0.0065
RRIKNRRLKQVT | 0.63 ± 0.076 | 0.694 ± 0.011 | 0.666 ± 0.064 | 0.722 ± 0.0067 | 0.214 ± 0.0054 | 0.283 ± 0.026 | 0.472 ± 0.036 | 0.43 ± 0.033
RRQLVLVLSWVI | 0.466 ± 0.017 | 0.508 ± 0.018 | 0.346 ± 0.027 | 0.507 ± 0.019 | 0.299 ± 0.013 | 0.322 ± 0.017 | 0.506 ± 0.067 | 0.377 ± 0.025
RRQQNHRQLCAT | 0.65 ± 0.092 | 0.708 ± 0.029 | 0.642 ± 0.028 | 0.7322 ± 0.0065 | 0.21 ± 0.018 | 0.259 ± 0.038 | 0.518 ± 0.038 | 0.401 ± 0.016
RRRNQAAHLYSH | 0.617 ± 0.024 | 0.694 ± 0.044 | 0.67 ± 0.023 | 0.708 ± 0.0077 | 0.139 ± 0.022 | 0.159 ± 0.024 | 0.348 ± 0.011 | 0.268 ± 0.013
RSFGGRPWVLFL | 0.623 ± 0.037 | 0.733 ± 0.023 | 0.638 ± 0.018 | 0.7549 ± 0.0052 | 0.106 ± 0.014 | 0.0971 ± 0.025 | 0.255 ± 0.019 | 0.192 ± 0.034
RTRVRKTRIRTC | 0.624 ± 0.039 | 0.6934 ± 0.0022 | 0.637 ± 0.018 | 0.724 ± 0.015 | 0.234 ± 0.02 | 0.277 ± 0.0072 | 0.517 ± 0.011 | 0.392 ± 0.021
RVFLVLFLILSG | 0.297 ± 0.021 | 0.428 ± 0.0072 | 0.287 ± 0.031 | 0.469 ± 0.0087 | 0.262 ± 0.0092 | 0.286 ± 0.018 | 0.425 ± 0.0055 | 0.344 ± 0.028
RVIRHLRRISNF | 0.647 ± 0.035 | 0.745 ± 0.0042 | 0.661 ± 0.0098 | 0.705 ± 0.046 | 0.142 ± 0.009 | 0.16 ± 0.045 | 0.307 ± 0.034 | 0.369 ± 0.021
RVLSLLGCFVVF | 0.501 ± 0.03 | 0.486 ± 0.013 | 0.448 ± 0.028 | 0.585 ± 0.018 | 0.485 ± 0.017 | 0.429 ± 0.013 | 0.558 ± 0.026 | 0.4651 ± 0.0023

Sequence | protein stability index (Saccharomyces cerevisiae [1]; [3]) | protein stability index (Saccharomyces cerevisiae [1]; [4]) | protein stability index (Saccharomyces cerevisiae [1]; [5]) | protein stability index (Saccharomyces cerevisiae [1]; [6]) | protein stability index (Saccharomyces cerevisiae [1]; [7]) | protein stability index (Saccharomyces cerevisiae [1]; [8]) | protein stability index (Saccharomyces cerevisiae [1]; [9]) | protein stability index (Saccharomyces cerevisiae [2])
RVLVEIVYFKVF | 0.244 ± 0.0031 | 0.395 ± 0.032 | 0.256 ± 0.04 | 0.474 ± 0.012 | 0.037 ± 0.014 | 0.05 ± 0.0044 | 0.055 ± 0.00095 | 0.134 ± 0.0018
RVRNSQVVAVVG | 0.491 ± 0.014 | 0.576 ± 0.014 | 0.354 ± 0.038 | 0.586 ± 0.0092 | 0.3291 ± 0.0023 | 0.382 ± 0.018 | 0.548 ± 0.022 | 0.477 ± 0.011
RVTEYHTKYKIV | 0.487 ± 0.13 | 0.673 ± 0.076 | 0.656 ± 0.025 | 0.728 ± 0.077 | 0.0697 ± 0.0072 | 0.0674 ± 0.021 | 0.0807 ± 0.021 | 0.153 ± 0.012
RWAAAVPLLVVG | 0.0233 ± 0.0059 | 0.0234 ± 0.0027 | 0.143 ± 0.026 | 0.105 ± 0.0046 | 0.111 ± 0.018 | 0.137 ± 0.032 | 0.0908 ± 0.0062 | 0.211 ± 0.022
RWRYHAYVITIL | 0.334 ± 0.02 | 0.4158 ± 0.0037 | 0.392 ± 0.02 | 0.506 ± 0.0054 | 0.118 ± 0.0098 | 0.0812 ± 0.025 | 0.0987 ± 0.0088 | 0.138 ± 0.045
RYKIEKKKLMNN | 0.667 ± 0.019 | 0.741 ± 0.18 | 0.602 ± 0.01 | 0.7361 ± 0.003 | 0.182 ± 0.0036 | 0.235 ± 0.035 | 0.448 ± 0.048 | 0.42 ± 0.038
SEVMVGLRLTLN | 0.67 ± 0.051 | 0.728 ± 0.018 | 0.628 ± 0.033 | 0.7149 ± 0.0029 | 0.282 ± 0.0065 | 0.318 ± 0.03 | 0.545 ± 0.029 | 0.416 ± 0.038
SFRIWLFRFFFV | 0.6 ± 0.034 | 0.669 ± 0.034 | 0.555 ± 0.047 | 0.651 ± 0.008 | 0.364 ± 0.025 | 0.372 ± 0.016 | 0.541 ± 0.032 | 0.407 ± 0.018
SFSFCCLLASFV | 0.605 ± 0.015 | 0.6186 ± 0.006 | 0.484 ± 0.028 | 0.617 ± 0.014 | 0.444 ± 0.025 | 0.461 ± 0.015 | 0.603 ± 0.013 | 0.44 ± 0.044
SFSIPILLLAFP | 0.264 ± 0.018 | 0.2229 ± 0.00014 | 0.311 ± 0.022 | 0.409 ± 0.011 | 0.451 ± 0.026 | 0.314 ± 0.021 | 0.3719 ± 0.0017 | 0.425 ± 0.006
SFYAGLVVGGVG | 0.582 ± 0.038 | 0.616 ± 0.014 | 0.508 ± 0.026 | 0.6 ± 0.0064 | 0.525 ± 0.001 | 0.5 ± 0.018 | 0.5813 ± 0.0037 | 0.528 ± 0.053
SGLVAFSVCCRG | 0.4091 ± 0.00089 | 0.449 ± 0.036 | 0.301 ± 0.039 | 0.5177 ± 0.0048 | 0.2625 ± 0.0015 | 0.308 ± 0.02 | 0.4862 ± 0.0037 | 0.433 ± 0.021
SGLVHVLILGAC | 0.4899 ± 0.0043 | 0.5165 ± 0.0038 | 0.347 ± 0.038 | 0.5529 ± 0.0051 | 0.313 ± 0.0048 | 0.338 ± 0.033 | 0.506 ± 0.011 | 0.45 ± 0.0019
SGRGFSFVLCTV | 0.539 ± 0.039 | 0.599 ± 0.013 | 0.339 ± 0.035 | 0.58 ± 0.017 | 0.307 ± 0.013 | 0.339 ± 0.025 | 0.58 ± 0.015 | 0.4119 ± 2.1e-05
SGRKNQRILGLY | 0.656 ± 0.1 | 0.7334 ± 0.0067 | 0.6488 ± 0.0054 | 0.731 ± 0.023 | 0.199 ± 0.029 | 0.221 ± 0.038 | 0.497 ± 0.011 | 0.301 ± 0.055
SLAPPPPLLILR | 0.403 ± 0.049 | 0.325 ± 0.015 | 0.345 ± 0.021 | 0.479 ± 0.049 | 0.605 ± 0.0019 | 0.348 ± 0.025 | 0.4471 ± 0.0029 | 0.335 ± 0.022
SLARPGLCFVIA | 0.534 ± 0.002 | 0.583 ± 0.018 | 0.356 ± 0.029 | 0.569 ± 0.011 | 0.311 ± 0.019 | 0.342 ± 0.026 | 0.543 ± 0.029 | 0.417 ± 0.034
SLASPPPLLILR | 0.372 ± 0.057 | 0.342 ± 0.023 | 0.326 ± 0.032 | 0.436 ± 0.038 | 0.60698 ± 1.5e-05 | 0.354 ± 0.0056 | 0.434 ± 0.01 | 0.346 ± 0.023
SLFFCIPIHSVF | 0.606 ± 0.046 | 0.585 ± 0.0079 | 0.491 ± 0.014 | 0.5855 ± 0.0036 | 0.398 ± 0.012 | 0.423 ± 0.021 | 0.524 ± 0.013 | 0.461 ± 0.014
